What was measured:
[1] = target: K48 polyubiquitin linkages in 293T cell lysates (human) (UniProt P0CG48); test: IP from lysate of 293T cells over-expressing LUBAC, 7 M urea, mass spec AQUA; input 12420 pmol
[2] = target: K11 polyubiquitin linkages in 293T cell lysates (human) (UniProt P0CG48); test: IP from 293T lysate (empty vector), 7 M urea, mass spec AQUA; input 1085 pmol
[3] = target: K63-linked diubiquitin (Boston Biochem) (human) (UniProt P0CG48); test: western blot, IgG 1 µg/mL, two-fold dilutions of K63-linked diubiquitin 1 µg to 16 ng

Row | pmol of ubiquitin linkage in the immunoprecipitate [1] [pmol] | pmol of ubiquitin linkage in the immunoprecipitate [2] [pmol] | limit of detection [3] [ng] | Substance
1 | 1 | 0 | – | isotype control IgG (unrelated human kappa IgG1 antibody)
2 | – | – | 62 | Apu3.A8 anti-K63 IgG (antibody)

— patent US20130058955A1
